{"source": "the supplement of paper PMC9112550", "about": "“Optimization of the antimicrobial peptide Bac7 by deep mutational scanning” (BMC Biology, 2022);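 note: peptides expressed intracellularly from a pBAD plasmid library in pooled LB shake-flask culture, induced with 0.3% L-arabinose, DNA abundance read by NGS, three biological replicates, DESeq2 with apeglm shrinkage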", "system": "Escherichia coli TOP10", "experiment": "shrunken log2 fold change of peptide-encoding DNA abundance (4.5 h post-induction vs induction); higher = less antimicrobial activity (less host growth inhibition)", "conditions": "time post-induction: 4.5 h; library: site-saturation at positions 5, 18, 19, 20"}
{"sequence": "RRIRFRPPRLPRPRPRPDALPRP", "values": [{"measurement": "shrunken log2 fold change", "value": -0.0978}]}
{"sequence": "RRIRIRPPRLPRPRPRPPMCPRP", "values": [{"measurement": "shrunken log2 fold change", "value": -0.0556}]}
{"sequence": "RRIRHRPPRLPRPRPRPHKAPRP", "values": [{"measurement": "shrunken log2 fold change", "value": -0.31}]}
{"sequence": "RRIRARPPRLPRPRPRPDVGPRP", "values": [{"measurement": "shrunken log2 fold change", "value": 0.0285}]}
{"sequence": "RRIRFRPPRLPRPRPRPFYAPRP", "values": [{"measurement": "shrunken log2 fold change", "value": -0.542}]}
{"sequence": "RRIRARPPRLPRPRPRPQMPPRP", "values": [{"measurement": "shrunken log2 fold change", "value": 0.465}]}
{"sequence": "RRIRNRPPRLPRPRPRPPSNPRP", "values": [{"measurement": "shrunken log2 fold change", "value": -0.135}]}
{"sequence": "RRIRFRPPRLPRPRPRPDQLPRP", "values": [{"measurement": "shrunken log2 fold change", "value": 0.22}]}
{"sequence": "RRIRARPPRLPRPRPRPASPPRP", "values": [{"measurement": "shrunken log2 fold change", "value": 0.499}]}
{"sequence": "RRIRVRPPRLPRPRPRPHCTPRP", "values": [{"measurement": "shrunken log2 fold change", "value": -1.21}]}
{"sequence": "RRIRIRPPRLPRPRPRPRATPRP", "values": [{"measurement": "shrunken log2 fold change", "value": 0.728}]}
{"sequence": "RRIRWRPPRLPRPRPRPAEVPRP", "values": [{"measurement": "shrunken log2 fold change", "value": 0.204}]}
{"sequence": "RRIRERPPRLPRPRPRPVPAPRP", "values": [{"measurement": "shrunken log2 fold change", "value": 0.224}]}
{"sequence": "RRIRSRPPRLPRPRPRPTFWPRP", "values": [{"measurement": "shrunken log2 fold change", "value": 0.536}]}
{"sequence": "RRIRARPPRLPRPRPRPCYQPRP", "values": [{"measurement": "shrunken log2 fold change", "value": -0.232}]}
{"sequence": "RRIRERPPRLPRPRPRPFHAPRP", "values": [{"measurement": "shrunken log2 fold change", "value": -0.0736}]}
{"sequence": "RRIRYRPPRLPRPRPRPVAFPRP", "values": [{"measurement": "shrunken log2 fold change", "value": -0.717}]}
{"sequence": "RRIRLRPPRLPRPRPRPWDGPRP", "values": [{"measurement": "shrunken log2 fold change", "value": -0.153}]}
{"sequence": "RRIRERPPRLPRPRPRPEHPPRP", "values": [{"measurement": "shrunken log2 fold change", "value": -0.0878}]}
{"sequence": "RRIRDRPPRLPRPRPRPCYPPRP", "values": [{"measurement": "shrunken log2 fold change", "value": -0.0894}]}
{"sequence": "RRIRGRPPRLPRPRPRPHDRPRP", "values": [{"measurement": "shrunken log2 fold change", "value": -0.0826}]}
{"sequence": "RRIRERPPRLPRPRPRPEGMPRP", "values": [{"measurement": "shrunken log2 fold change", "value": 0.046}]}
{"sequence": "RRIRMRPPRLPRPRPRPTDDPRP", "values": [{"measurement": "shrunken log2 fold change", "value": 0.637}]}
{"sequence": "RRIRMRPPRLPRPRPRPRGMPRP", "values": [{"measurement": "shrunken log2 fold change", "value": 0.861}]}
{"sequence": "RRIRMRPPRLPRPRPRPNSDPRP", "values": [{"measurement": "shrunken log2 fold change", "value": 0.0685}]}
{"sequence": "RRIRKRPPRLPRPRPRPILGPRP", "values": [{"measurement": "shrunken log2 fold change", "value": 0.00783}]}
{"sequence": "RRIRHRPPRLPRPRPRPNITPRP", "values": [{"measurement": "shrunken log2 fold change", "value": -0.489}]}
{"sequence": "RRIRVRPPRLPRPRPRPMMHPRP", "values": [{"measurement": "shrunken log2 fold change", "value": -0.365}]}
{"sequence": "RRIRNRPPRLPRPRPRPDSRPRP", "values": [{"measurement": "shrunken log2 fold change", "value": -0.0141}]}
{"sequence": "RRIRMRPPRLPRPRPRPKTIPRP", "values": [{"measurement": "shrunken log2 fold change", "value": 0.0873}]}
{"sequence": "RRIRHRPPRLPRPRPRPCWLPRP", "values": [{"measurement": "shrunken log2 fold change", "value": -0.0661}]}
{"sequence": "RRIRSRPPRLPRPRPRPAKHPRP", "values": [{"measurement": "shrunken log2 fold change", "value": -0.0685}]}
{"sequence": "RRIRMRPPRLPRPRPRPAWRPRP", "values": [{"measurement": "shrunken log2 fold change", "value": 0.533}]}
{"sequence": "RRIRIRPPRLPRPRPRPSFDPRP", "values": [{"measurement": "shrunken log2 fold change", "value": -0.442}]}
{"sequence": "RRIRGRPPRLPRPRPRPASRPRP", "values": [{"measurement": "shrunken log2 fold change", "value": 0.705}]}
{"sequence": "RRIRDRPPRLPRPRPRPHVQPRP", "values": [{"measurement": "shrunken log2 fold change", "value": -0.0912}]}
{"sequence": "RRIRPRPPRLPRPRPRPEVDPRP", "values": [{"measurement": "shrunken log2 fold change", "value": 0.155}]}
{"sequence": "RRIRNRPPRLPRPRPRPNMKPRP", "values": [{"measurement": "shrunken log2 fold change", "value": -0.48}]}
{"sequence": "RRIRSRPPRLPRPRPRPCTQPRP", "values": [{"measurement": "shrunken log2 fold change", "value": -0.294}]}
{"sequence": "RRIRNRPPRLPRPRPRPRENPRP", "values": [{"measurement": "shrunken log2 fold change", "value": -0.0577}]}
{"sequence": "RRIRIRPPRLPRPRPRPIASPRP", "values": [{"measurement": "shrunken log2 fold change", "value": -0.567}]}
{"sequence": "RRIRRRPPRLPRPRPRPMIWPRP", "values": [{"measurement": "shrunken log2 fold change", "value": 0.0834}]}
{"sequence": "RRIRFRPPRLPRPRPRPNGTPRP", "values": [{"measurement": "shrunken log2 fold change", "value": -0.419}]}
{"sequence": "RRIRVRPPRLPRPRPRPNQPPRP", "values": [{"measurement": "shrunken log2 fold change", "value": -0.0412}]}
{"sequence": "RRIRFRPPRLPRPRPRPLQFPRP", "values": [{"measurement": "shrunken log2 fold change", "value": 0.0763}]}
{"sequence": "RRIRFRPPRLPRPRPRPVEAPRP", "values": [{"measurement": "shrunken log2 fold change", "value": -0.103}]}
{"sequence": "RRIRNRPPRLPRPRPRPLWNPRP", "values": [{"measurement": "shrunken log2 fold change", "value": -0.511}]}
{"sequence": "RRIRLRPPRLPRPRPRPDIEPRP", "values": [{"measurement": "shrunken log2 fold change", "value": 0.0333}]}
{"sequence": "RRIRFRPPRLPRPRPRPIPIPRP", "values": [{"measurement": "shrunken log2 fold change", "value": -0.648}]}
{"sequence": "RRIRDRPPRLPRPRPRPKTAPRP", "values": [{"measurement": "shrunken log2 fold change", "value": 0.00938}]}
{"sequence": "RRIRWRPPRLPRPRPRPKYRPRP", "values": [{"measurement": "shrunken log2 fold change", "value": 0.00658}]}
{"sequence": "RRIRWRPPRLPRPRPRPSVFPRP", "values": [{"measurement": "shrunken log2 fold change", "value": 0.222}]}
{"sequence": "RRIRSRPPRLPRPRPRPLTLPRP", "values": [{"measurement": "shrunken log2 fold change", "value": -0.599}]}
{"sequence": "RRIRTRPPRLPRPRPRPRAPPRP", "values": [{"measurement": "shrunken log2 fold change", "value": 0.511}]}
{"sequence": "RRIRCRPPRLPRPRPRPIDSPRP", "values": [{"measurement": "shrunken log2 fold change", "value": -0.197}]}
{"sequence": "RRIRIRPPRLPRPRPRPSFTPRP", "values": [{"measurement": "shrunken log2 fold change", "value": -0.573}]}
{"sequence": "RRIRKRPPRLPRPRPRPAYDPRP", "values": [{"measurement": "shrunken log2 fold change", "value": -0.116}]}
{"sequence": "RRIRVRPPRLPRPRPRPCILPRP", "values": [{"measurement": "shrunken log2 fold change", "value": -0.208}]}
{"sequence": "RRIRVRPPRLPRPRPRPHGFPRP", "values": [{"measurement": "shrunken log2 fold change", "value": -0.017}]}
{"sequence": "RRIRNRPPRLPRPRPRPCSTPRP", "values": [{"measurement": "shrunken log2 fold change", "value": -0.194}]}
{"sequence": "RRIRVRPPRLPRPRPRPLTAPRP", "values": [{"measurement": "shrunken log2 fold change", "value": 0.106}]}
{"sequence": "RRIRARPPRLPRPRPRPCFYPRP", "values": [{"measurement": "shrunken log2 fold change", "value": -0.218}]}
{"sequence": "RRIRRRPPRLPRPRPRPYEAPRP", "values": [{"measurement": "shrunken log2 fold change", "value": 0.125}]}
{"sequence": "RRIRDRPPRLPRPRPRPIQRPRP", "values": [{"measurement": "shrunken log2 fold change", "value": -0.01}]}
{"sequence": "RRIRTRPPRLPRPRPRPCMHPRP", "values": [{"measurement": "shrunken log2 fold change", "value": -0.0639}]}
{"sequence": "RRIRMRPPRLPRPRPRPLTWPRP", "values": [{"measurement": "shrunken log2 fold change", "value": 0.308}]}
{"sequence": "RRIRWRPPRLPRPRPRPNYAPRP", "values": [{"measurement": "shrunken log2 fold change", "value": -0.0925}]}
{"sequence": "RRIRWRPPRLPRPRPRPDISPRP", "values": [{"measurement": "shrunken log2 fold change", "value": -0.135}]}
{"sequence": "RRIRWRPPRLPRPRPRPHWGPRP", "values": [{"measurement": "shrunken log2 fold change", "value": 0.171}]}
{"sequence": "RRIRERPPRLPRPRPRPIDYPRP", "values": [{"measurement": "shrunken log2 fold change", "value": -0.0881}]}
{"sequence": "RRIRFRPPRLPRPRPRPAVQPRP", "values": [{"measurement": "shrunken log2 fold change", "value": -0.0142}]}
{"sequence": "RRIRLRPPRLPRPRPRPETTPRP", "values": [{"measurement": "shrunken log2 fold change", "value": 0.182}]}
{"sequence": "RRIRHRPPRLPRPRPRPNYVPRP", "values": [{"measurement": "shrunken log2 fold change", "value": -0.0206}]}
{"sequence": "RRIRYRPPRLPRPRPRPHLVPRP", "values": [{"measurement": "shrunken log2 fold change", "value": -0.0159}]}
{"sequence": "RRIRFRPPRLPRPRPRPKLDPRP", "values": [{"measurement": "shrunken log2 fold change", "value": 0.0288}]}
{"sequence": "RRIRLRPPRLPRPRPRPRMAPRP", "values": [{"measurement": "shrunken log2 fold change", "value": 0.39}]}
{"sequence": "RRIRLRPPRLPRPRPRPGESPRP", "values": [{"measurement": "shrunken log2 fold change", "value": 0.0313}]}
{"sequence": "RRIRLRPPRLPRPRPRPSYNPRP", "values": [{"measurement": "shrunken log2 fold change", "value": -0.588}]}
{"sequence": "RRIRPRPPRLPRPRPRPDHTPRP", "values": [{"measurement": "shrunken log2 fold change", "value": 0.0191}]}
{"sequence": "RRIRSRPPRLPRPRPRPFGAPRP", "values": [{"measurement": "shrunken log2 fold change", "value": 0.162}]}
{"sequence": "RRIRIRPPRLPRPRPRPHCAPRP", "values": [{"measurement": "shrunken log2 fold change", "value": -0.0649}]}
{"sequence": "RRIRNRPPRLPRPRPRPMHSPRP", "values": [{"measurement": "shrunken log2 fold change", "value": -0.0169}]}
{"sequence": "RRIRERPPRLPRPRPRPYDDPRP", "values": [{"measurement": "shrunken log2 fold change", "value": -0.341}]}
{"sequence": "RRIRDRPPRLPRPRPRPKELPRP", "values": [{"measurement": "shrunken log2 fold change", "value": 0.0843}]}
{"sequence": "RRIRIRPPRLPRPRPRPWACPRP", "values": [{"measurement": "shrunken log2 fold change", "value": -0.406}]}
{"sequence": "RRIRMRPPRLPRPRPRPYITPRP", "values": [{"measurement": "shrunken log2 fold change", "value": -0.393}]}
{"sequence": "RRIRERPPRLPRPRPRPMWVPRP", "values": [{"measurement": "shrunken log2 fold change", "value": 0.292}]}
{"sequence": "RRIRGRPPRLPRPRPRPRCLPRP", "values": [{"measurement": "shrunken log2 fold change", "value": 0.706}]}
{"sequence": "RRIRGRPPRLPRPRPRPDNKPRP", "values": [{"measurement": "shrunken log2 fold change", "value": -0.169}]}
{"sequence": "RRIRDRPPRLPRPRPRPKGPPRP", "values": [{"measurement": "shrunken log2 fold change", "value": -0.0184}]}
{"sequence": "RRIRCRPPRLPRPRPRPQDEPRP", "values": [{"measurement": "shrunken log2 fold change", "value": -0.0478}]}
